The target of data set [1] is T1, Rad51 wild type (Saccharomyces cerevisiae) (UniProt P25454).
T1 sequence: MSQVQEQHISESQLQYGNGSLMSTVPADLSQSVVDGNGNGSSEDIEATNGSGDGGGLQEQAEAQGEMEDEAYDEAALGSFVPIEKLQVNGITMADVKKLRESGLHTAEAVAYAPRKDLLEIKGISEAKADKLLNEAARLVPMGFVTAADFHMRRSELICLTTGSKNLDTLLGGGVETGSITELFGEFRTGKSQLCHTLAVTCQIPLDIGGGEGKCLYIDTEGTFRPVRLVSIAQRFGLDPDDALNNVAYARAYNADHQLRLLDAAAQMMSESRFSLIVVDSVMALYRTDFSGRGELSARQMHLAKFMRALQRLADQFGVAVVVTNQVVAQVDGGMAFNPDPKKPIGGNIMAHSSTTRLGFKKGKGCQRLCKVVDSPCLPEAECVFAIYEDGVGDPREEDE
The experiment in a line: EMSA. Particulars: Kd EMSA: 35 mM Tris-acetate pH 7.5, 50 or 100 mM NaCl, 7 mM Mg acetate, 2 mM ATP, 1 mM DTT, 0.25 mg/mL BSA, 3 uM nt/bp DNA, 30 C 30 min; salt titration: 20 mM …. (A gel shift assay detects complexes by their altered migration in electrophoresis.)

The target in data set [2] is T2, Rad51-ED (Rad51-E135D) E135D (Saccharomyces cerevisiae) (UniProt P25454).
T2 sequence: T1 sequence with E135D
The experiment in a line: EMSA. The settings on record: Kd EMSA: 35 mM Tris-acetate pH 7.5, 50 or 100 mM NaCl, 7 mM Mg acetate, 2 mM ATP, 1 mM DTT, 0.25 mg/mL BSA, 3 uM nt/bp DNA, 30 C 30 min; salt titration: 20 mM ….

Data set [3] concerns the target T3, Rad51-KN (Rad51-K305N) K305N (Saccharomyces cerevisiae) (UniProt P25454).
T3 sequence: T1 sequence with K305N
The experiment in a line: EMSA. Particulars: Kd EMSA: 35 mM Tris-acetate pH 7.5, 50 or 100 mM NaCl, 7 mM Mg acetate, 2 mM ATP, 1 mM DTT, 0.25 mg/mL BSA, 3 uM nt/bp DNA, 30 C 30 min; salt titration: 20 mM ….

The target in data set [4] is T1, Rad51 wild type (Saccharomyces cerevisiae). The experiment in a line: EMSA (salt titration). Particulars: 3.33 uM Rad51, ATP, Mg2+, glutaraldehyde fixed; Kd EMSA: 35 mM Tris-acetate pH 7.5, 50 or 100 mM NaCl, 7 mM Mg acetate, 2 mM ATP, 1 mM DTT, 0.25 mg/mL BSA, 3 uM nt/bp DNA, 30 C 30 min; salt titration: 20 mM ….
Data set [5] deals with T2, Rad51-ED (Rad51-E135D) E135D (Saccharomyces cerevisiae). The experiment in a line: EMSA (salt titration). The settings on record: 3.33 uM Rad51, ATP, Mg2+; listed as label assigned from text (ED defect stronger); Kd EMSA: 35 mM Tris-acetate pH 7.5, 50 or 100 mM NaCl, 7 mM Mg acetate, 2 mM ATP, 1 mM DTT, 0.25 mg/mL BSA, 3 uM nt/bp DNA, 30 C 30 min; salt titration: 20 mM ….

Data set [6] deals with T3, Rad51-KN (Rad51-K305N) K305N (Saccharomyces cerevisiae). The experiment in a line: EMSA (salt titration). The settings on record: 3.33 uM Rad51, ATP, Mg2+; listed as label assigned from text (ED defect stronger); Kd EMSA: 35 mM Tris-acetate pH 7.5, 50 or 100 mM NaCl, 7 mM Mg acetate, 2 mM ATP, 1 mM DTT, 0.25 mg/mL BSA, 3 uM nt/bp DNA, 30 C 30 min; salt titration: 20 mM ….

Data set [7] addresses T4, GST-Rad55-His6-Rad57 complex (S. cerevisiae, UniProt P38953 1-406; P25301 1-460).
T4 construct: Rad55, Rad51 paralog of budding yeast; Rad57, Rad51 paralog of budding yeast; stored in 20 mM Tris-HCl pH 7.5, 0.2 M NaCl, 0.1 mM EDTA, 1 mM DTT, 50% glycerol; also called Rad55-Rad57; Rad51 paralog complex; source: purified as described (Liu et al. 2011b)
T4 sequence (looked up) 1: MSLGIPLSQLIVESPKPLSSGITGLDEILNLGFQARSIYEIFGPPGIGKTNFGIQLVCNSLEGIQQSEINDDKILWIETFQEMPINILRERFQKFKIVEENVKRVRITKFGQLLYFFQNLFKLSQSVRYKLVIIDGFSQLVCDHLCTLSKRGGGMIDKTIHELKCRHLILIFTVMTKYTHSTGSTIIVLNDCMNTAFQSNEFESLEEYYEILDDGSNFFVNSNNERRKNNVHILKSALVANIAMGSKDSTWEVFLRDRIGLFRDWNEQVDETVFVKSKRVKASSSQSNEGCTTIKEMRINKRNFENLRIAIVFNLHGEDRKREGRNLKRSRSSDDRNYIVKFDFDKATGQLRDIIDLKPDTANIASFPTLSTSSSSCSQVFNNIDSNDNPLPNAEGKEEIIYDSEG
T4 sequence (looked up) 2: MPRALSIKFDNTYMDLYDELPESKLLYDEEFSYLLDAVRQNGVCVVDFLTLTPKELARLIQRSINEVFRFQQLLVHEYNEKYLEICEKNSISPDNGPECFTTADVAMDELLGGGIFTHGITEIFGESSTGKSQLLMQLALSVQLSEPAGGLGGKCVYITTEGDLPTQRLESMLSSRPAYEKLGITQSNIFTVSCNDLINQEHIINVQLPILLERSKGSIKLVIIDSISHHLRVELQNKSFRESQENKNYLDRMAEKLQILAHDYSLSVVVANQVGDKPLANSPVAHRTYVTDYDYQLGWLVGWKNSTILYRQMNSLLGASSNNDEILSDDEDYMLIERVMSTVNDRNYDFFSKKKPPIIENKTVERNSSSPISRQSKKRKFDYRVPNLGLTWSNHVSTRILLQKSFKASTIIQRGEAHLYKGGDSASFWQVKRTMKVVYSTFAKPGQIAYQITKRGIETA
The experiment in a line: pull-down; 100 nM GST-Rad55-His6-Rad57 with 100 nM Rad51 in buffer P (25 mM Tris-acetate pH 7.5, 10 mM magnesium acetate, 50 mM NaCl, 1 mM DTT, 10% glycerol, 0.01% NP-40), 25 ul, 1 h at room temperature; captured on BSA-treated glutathione agarose beads; immunoblot with anti-Rad51 and anti-GST. The settings on record: both partners purified. On the technique in general: Immunoblotting shows a protein as a band on a membrane.

Where a chain is given by its changes, count along the chain named. In names and notes the source's numbering stands. Several values for one entry are separate records, joined by “and”; a condition that tells them apart may be missing. Identical values can stand only once.

Broadly, the Kd is the concentration at which binding is half-saturated. As to “AACGACGTTTGGTCAGTTCCATCAACATCATAGCCAGATGCCCAGAGATTAGAGCGCATGACAAGTAAAGGACGGTTGTCAGCGTCATAAGAGGTTTTAC [olWDH2086 100 nt ssDNA]”, the dissociation constant (Kd) is 497 nM and 578 nM in data set [1]; 486 nM and 602 nM in data set [2]; 339 nM and 402 nM in data set [3].
For the molecule PhiX174 RF1 dsDNA, the salt titration midpoint (mM NaCl (salt titration midpoint)) in data set [4] stood at 174; in data set [5], 42; in data set [6], 71.
The matching figures for PhiX174 viral ssDNA: 246, 130 and 143.

B1: Rad51 wild type protein (natural protein, S. cerevisiae, UniProt P25454 1-400, looked up)
chain: T1 sequence
notes: Rad51, Saccharomyces cerevisiae; native, untagged protein; Purified native and untagged; also called wild-type Rad51; wild type Rad51
In the case of B1, the binding result in data set [7] was “binds”.

B2: Rad51-K305N (natural protein, S. cerevisiae, UniProt P25454 1-400, looked up)
chain: T1 sequence with K305N
notes: Rad51, Saccharomyces cerevisiae, with the single change K305N (isolated by mutagenic PCR); native, untagged protein; also called Rad51-KN; RAD51-KN
Consider B2, for which the binding result in data set [7] was “binds”.

B3: Rad51-E135D (natural protein, S. cerevisiae, UniProt P25454 1-400, looked up)
chain: T1 sequence with E135D
notes: Rad51, Saccharomyces cerevisiae, with the single change E135D (isolated by mutagenic PCR); native, untagged protein; also called Rad51-ED; rad51-ED
Consider B3, for which the binding result in data set [7] is on record as “binds”.

Source of the values: publication PMC12876063, “Rad51 determines pathway usage in post-replication repair” (Nature Communications, 2026).
